{"source": "patent US9636415B2", "about": "“Bispecific molecule binding TLR9 and CD32 and comprising a T cell epitope for treatment of allergies” (S-TARget therapeutics GmbH, priority 2006, dated 2017)", "molecules": {"B1": {"name": "warhead (conjugate)", "scFv": "EVQLQQSGPELKKPGETVKISCKASGYTFTNYGMNWVKQAPGKGLKWMGWLNTYTGESIYPDDFKGRFAFSSETSASTAYLQINNLKNEDMATYFCARGDYGYDDPLDYWGQGTSVTVSSGGGGSGGGGSGGGGSDIVMTQAAPSVPVTPGESVSISCRSSKSLLHTNGNTYLHWFLQRPGQSPQLLIYRMSVLASGVPDRFSGSGSGTAFTLSISRVEAEDVGVFYCMQHLEYPLTFGAGTKLELKGSISAWSHPQFEKGPEVSALEKEVSALEKEVSALEKEVSALEKEVSALEK"}, "B2": {"name": "ScFV-1-coil: ScFV derived from mAb IV.3 with pepE coil plus StrepTag II (SEQ ID 93) (protein)", "scFv": "B1 scFv", "modifications": "ScFV"}}, "key": {"PBMC": {"tested_on": "PBMC", "assay": "IFN and IL-4 ELISA in pooled PBMC culture supernatants after immunization with SG100", "format": "in vivo, rhesus monkey", "settings": "positive control, data not shown; PBMC of SG100-immunized animals", "protocol": "5 healthy house dust mite (HDM) naïve rhesus monkeys were immunized 3× with SG100 (100 μg/shot) absorbed on Alum) on d0, d14 and d28. Blood samples were taken on d0 and d49 for T cell activation and antibody production.\nProliferation: PBMC ([…]) were cultured for 4 days (37° C./5% CO2/99% humidity) in 8 plex with medium, warhead (2 μg/ml), Immunogen (2 μg/ml), Der p1 (2 μg/ml), Der p2 (2 μg/ml), Der p5 (2 μg/ml) and Der p7 (2 μg/ml). As positive control Con A (Concanavaline A, Sigma) was used. Proliferation was measured by [3H]-thymidine (0.5 μCi/well) during the final 18 hrs of a 4 day culture. Cells were harvested for β-scintillation counting (Topcount NXT, Packerd, Ramsey, Minn., USA). Net counts per minutes were calculated by subtracting the counts of the medium control from the counts induced by the different antigens.\nFrom each well of the 8plex stimulations of the proliferation experiment, 50 μl supernatant was taken after 24 h and pooled. The pooled supernatants were tested for the presence of IFN and IL-4 using commercially available ELISA kits from U-Cytech, Utrecht The Netherlands)."}, "pDCS in PBMC": {"tested_on": "pDCS in PBMC", "assay": "IL-6 and TNFα production after stimulation with CpG targeted to CD32 by aCD32a peptide (Example 10)", "format": "cell-based, human", "settings": "CpG without targeting", "protocol": "Buffy coats were obtained from the Red Cross Austria. Cells were separated on ficoll hypack.\nFreshly isolated PBMC's were incubated with 200 μg/ml aCD32a peptide published by Berntzen et al (J. Biol. Chem. (2009) 284:1126-1135; sequence ADGAWAWVWLTETAVGAAK-biotin, SEQ ID NO:68) in PBA (PBS containing 5% BSA) on ice for 30 minutes and washed twice with PBA, followed by an incubation with 10 μg/ml streptavidin in PBA on ice for 30 minutes and two times washing with PBA. Subsequently, PBMC's were incubated on ice for 15 minutes with either PBA, 5 μg/ml ODN-CpG C (M362, Axorra) in PBA or 5 μg/ml ODN-CpG C-3′-biotin in PBA (M362, Girindus). Unbound ODN-CpG C was washed away three time with PBA and PBMCs were cultured overnight (37° C., 5% CO2) in X-VIVO-15 medium (Cambrex), supplemented with 2% of decomplemented human AB+ serum. Supernatants were collected from PBMC cultures after overnight stimulation, and […] was analyzed with murine monoclonal capture and HRP-conjugated anti-IL-6 or TNF^L antibodies (BenderMed systems) using standard ELISA procedures."}, "human pDCs": {"tested_on": "human pDCs", "assay": "IFNα production of pDCs after stimulation with CpG targeted to CD32, AT10 or ScFV from IV.3 (Example 9)", "format": "cell-based", "settings": "CpG without targeting; p<0.04 resp. p<0.02", "procedure": "Buffy coats were obtained from healthy volunteers according to institutional guidelines and pDCs were purified by positive isolation using anti-BDCA-4-conjugated magnetic microbeads (Miltenyi Biotec) and cultured in X-VIVO-15 medium (Cambrex) supplemented with 2% of decomplemented human AB+ serum. pDCs purity was routinely up to 95%, as assessed by double staining BDCA-2/CD123 (Miltenyi Biotec) in a FACS.\nSubsequently, pDCs were incubated on ice for 15 minutes with either PBA, 5 μg/ml ODN-CpG C (M362, Axorra) in PBA or 5 μg/ml ODN-CpG C-3′-biotin in PBA (M362, Biosearch Technologies). Unbound ODN-CpG C was washed away three time with PBA and pDCs were cultured overnight (37° C., 5% CO2) in X-VIVO-15 medium (Cambrex), supplemented with 2% of decomplemented human AB+ serum. Supernatants were collected from pDC cultures after overnight stimulation, and IFNα production was analyzed with murine monoclonal capture and HRP-conjugated anti-IFNα antibodies (BenderMed systems) using standard ELISA procedures."}, "mice": {"tested_on": "mice", "assay": "IgG1 and IgG2a ELISA after s.c. immunization of mice with ScFV-1-coil or warhead", "format": "in vivo, mouse", "settings": "day 28, s.c. 2x 35 μg d0, d14", "protocol": "24 mice (6/group) were immunized s.c. 2× with 35 μg in 150 μl ScFV-1-coil or with warhead (ScFV-1-coil-M362) either formulated on Alum or diluted in PBS. Immunizations were done on d0, and d14, sera were taken on d0 (before immunization) and d28 and analyzed for IgG1 and IgG2a against ScFV-1-coil (indicated as ScFV) and mAb IV.3 by standard ELISA."}, "[1]": {"settings": "independent of the presence of Alum"}}}
{"molecule": "Concanavaline A [Con A]", "values": [{"measurement": "IL-4 after stimulation with Con A", "setting": "PBMC", "result": "IL-4 was seen"}]}
{"molecule": "TCGTCGTCGTTCGAACGACGTTGAT (chemistry not fully specified) [CpG standard, CpG class C oligodeoxynucleotide, TLR9 agonist, used without targeting]", "values": [{"measurement": "IL-6 production: times less potent than CpG targeted to CD32", "setting": "pDCS in PBMC", "result": "~75", "unit": "times"}, {"measurement": "potency of IFNα induction compared to CpG targeted to CD32", "setting": "human pDCs", "result": "significantly less potent"}]}
{"molecule": "B1", "values": [{"measurement": "IgG1 response to ScFV-1-coil", "setting": "mice; [1]", "result": "strong"}, {"measurement": "IgG1 response to mAb IV.3", "setting": "mice; [1]", "result": "strong"}, {"measurement": "IgG2 response to ScFV-1-coil", "setting": "mice; [1]", "result": "strong"}, {"measurement": "IgG2 response to mAb IV.3", "setting": "mice; [1]", "result": "strong"}]}
{"molecule": "B2", "values": [{"measurement": "IgG2a response", "setting": "mice; on Alum or in PBS", "result": "no IgG2a response was induced"}, {"measurement": "IgG1 response against ScFV-1-coil", "setting": "mice; only in the presence of Alum", "result": "induced an IgG1 response"}]}
